Assay results as given in the DeepSol protein solubility set.

Test: soluble on expression in E. coli; label from the status in PepcDB or PDB records

Soluble on expression in E. coli, not soluble:
MGSDKIHHHHHHMRIIETIEEMKKFSEEMREKKKTIGFVPTMGYLHEGHLSLVRRARAENDVVVVSIFVNPTQFGPNEDYERYPRDFERDRKLLEKENVDCIFHPSVEEMYPPDFSTYVEETKLSKHLCGRSRPGHFRGVCTVVTKLFNIVKPHRAYFGQKDAQQFRVLRRMVRDLNMDVEMIECPIVREPDGLAMSSRNVYLSPEERQQALSLYQSLKIAENLYLNGERDAEKIKEEMIKHLSRFDKVKIDYVEIVDEETLEPVEKIDRKVIVAVAAWVGNARLIDNTILG
MGSDKIHHHHHHMRIQQLHYIIKIVETGSMNEAAKQLFITQPSLSNAVRDLEREMGIEIFIRNPKGITLTKDGVEFLSYARQVVEQTALLEERYKSQGHTRELFSVSAQHYAFVVNAFVSLLKETDMTRYELFLRETRTYEIIDDVKNFRSEIGVLFLNSYNHDVLTKMFDDNHLTYTSLFKAHPHIFVSKDNPLAKHQSVSLSDLEDFPYLSYDQGIHNSFYFSEEIMSQISHKKSIVVSDRATLFNLMIGLDGYTIATGILNSNLNGDNIVSIPLEVDDEIDIIYLKHEKANLSKMGEKFIDYLLEEVKFDK
MGSDKIHHHHHHMRIYSFYNENARRETLEEHVATALKLLDSAENSKLVKYGKKLSPEFERAVKLAIIFHDTGKVFFQIKKGYGYMSFRGHEYFSTYIFDVFARRLIKSEIENYEALSELRKICNFSIFFHHHAMNIRMREPEAGSNIKAGLKLLDVLYSEVKRFLEDKEKKALKAALEEVKEKGTANLTGYVKGEIVREVWRNAMDSSKLKRLCYLNLLVLIAADYSSAALNRGGNKTPFGRVVEEFSEFYLK
MGSDKIHHHHHHMRKLPPLRALQVFEAAARHLHFSRAAEELCLTQSAVSHQVRGLEQHLGQTLFARRGRELALTPKGEQLFLAVQSALDGLDSLCRQLNEAESRELRLAVYSSFAVKWLIPRLGDFRRQHPGIKIHLEMVSGDPPLSDQVADMFICGEQHQRGFWQTLLRPERLIPVCSPALANALGEALVMPLRLDSLPLLSVDEADIGPDWARWAKSQAQTLTQAQLQSYSHVLLAIEAAIAGQGIALASDFIVEGDIAAGKLMALPWPALETGFGFHFCCRERRLKEPAMAAFAEWIQQQAAMAG
MGSDKIHHHHHHMRKLYILGMILGMYATFSACNDEWKDELYTQMLSFKAPLGDNGLSEIYVRYQPDGTGIYQLPVIVSGSKSNSRNIDAKIAVDEDTLRILNQEKFPVGRQDLWYVPLAEQHYSFESNICHIPAGENIQLYPIHFNFNGLELDEKYVLPLTIEEDPSYVQNKYKGRYKALLGVNLFNDYSGTYNTTLMNIYIEGTTTDPAKVDTRLARVVDENTIFFYAGSTWVEDENRSRYKVFVEFEEGTEDEEGTIKGKLRLYGDEGEPGINIRPLGECKYEKRIIQHETIKYMERHLTTLELSYKYTDVTSNPDYPITYEVKGSMTMERQINPLIPDEDQAIEW
MGSDKIHHHHHHMRKNRITEMLATASTIVLDGALATELEARGCDLTDPLWSAKVLVENPALIYQVHFDYFKAGAQCAITASYQATPQGFEARGYSEAESLALIAKSVQLAAQARDDYRRDNTQAGTLLVAGSVGPYGAYLADGSEYRGDYQLPQADMMAFHRPRIAALHEAGADLLACETLPSFAEIEALIALLAEFPQAQAWFSFTLRDSEHLSDGTPLRTVLERVNACSQVVAVGLNCIALEKVTPALMHLSSLTDLPLVVYPNSGEQYDAVTKTWSSAHDTACSLTAYLPEWQTAGARLIGGCCRTTPADIAGIARCCQQ
MGSDKIHHHHHHMRKVAIYSRVSTINQAEEGYSIQGQIEALTKYCEAMEWKIYKNYSDAGFSGGKLERPAITELIEDGKNNKFDTILVYKLDRLSRNVKDTLYLVKDVFTANNIHFVSLKENIDTSSAMGNLFLTLLSAIAEFEREQIKERMQFGVMNRAKSGKTTAWKTPPYGYRYNKDEKTLSVNELEAANVRQMFDMIISGCSIMSITNYARDNFVGNTWTHVKVKRILENETYKGLVKYREQTFSGDHQAIIDEKTYNKAQIALAHRTDTKTNTRPFQGKYMLSHIAKCGYCGAPLKVCTGRAKNDGTRRQTYVCVNKTESLARRSVNNYNNQKICNTGRYEKKHIEKYVIDVLYKLQHDKEYLKKIKKDDNIIDITPLKKEIEIIDKKINRLNDLYINDLIDLPKLKKDIEELNHLKDDYNKAIKLNYLDKKNEDSLGMLMDNLDIRKSSYDVQSRIVKQLIDRVEVTMDNIDIIFKF
MGSDKIHHHHHHMRLFTSKSRYLIGVDIGTTSVKLVDIQRQQGVFHLRSYGTEILSEGIVIDKLIVDTEAVGNTIAGLARRCQAVGSSAATAVSGSAVITKIIDMDMVLNDVEREAQIRLDADQYIPYPLDDVNLDFEVLGPSLINDDMVQVLLAASRSENVDQRVDALTFGGLQTKVMDIESHAIERAFGLMVDSLPNLPELVALVDIGHNQTTLYVAKNGEFIYSREQLFGGSQLTEAIQNRYGLSAEEASISQREHALPEDYYPDVLTPFIENTIQQITRSLQFYFSSSQYSSIDHVVLAGGSSAIAGLAGMAQQRLGVPVSIANPFINMTIAPHIDHEQLAIDAPSLMAACGLALRSFD
MGSDKIHHHHHHMRLITFDASYDPIAEESKTVRVYVFEPEKIERNLIFLHGIGNGNIPYLLWFGEKFREYNIKTWFLILPYHEKRAPENWSGGEPFYHSSPSFCVKRFDEAVQDVIDLVDVVKRDNDKPISLMGFSFGGMITTIALAREKRIEKGVICCSGGDWRWINWYSPYTERLRELYRKNGNEYGCRSEKDCIKNRRNAPEIIKSFNSIEDIRKKPPVGCYFYDPASFAPFVDQKVLFFWALFDHVIPYQSYACLHKLLKNKKTVYLPSGHKGSYFFRRYIAKRVVRFLIDDE
MGSDKIHHHHHHMRLPQKMFKIDTYLSPGEAFHFVRKELSEASPVLEHDHDYYELFLIQQGQVYHWINGLEEMLEPGHMVFVRPSDRHALQGAPGTGAKILNVMFRTQTAAHLVTRYADVFGGRFFWQPGPLPVTLRLHGPQRERAINSMLTLDTSFRNLARIELFLLSVMTHVLDTGEIVDGRAPGWLLQACHAAREPRVFRQGADGFLHAAGRSQAHVCRQARRYLGLSPTQYVNRIRIQHAAMLLAGTERGLPDIAADCGFENLSYFHRLFREQYGTTPRGYRHRHVRPIAPL
MGSDKIHHHHHHMRMLRRGSRGNDVAEVQVRLSELGYIPGPIDGIFGPKTEAAVIRFQKDRGLNPDGIVGPLTYQALFQPGPQPGYVLYTIKAGDTFYKLSLAFGVSLNEIIAANPGVDPYQLRIGQQVRIPKGGPGRRHTFSAWIPYWVQQEAMAVVRQHAELMTTLSPFWYELTPTGDLLLYPNAEDSSLIEFARSRGIELIPLVANNYDRQLISTVLNNPDLRQRNIAQIVNKVRSMNYTGIEIDYENIAAADRELFVLFLRELKAALAPYNKKLYVAIQAKTRADEPVSIGHDYGGIGAAVDVVRLMLYDYSWDNPGPIAPASWIRQVLDYAVTVIPPAKLEAGLPTYGYDWGTTRRSITYDDAIRLAQQHGAQIIQDPQRGPHFNYTDADGIAHQVWFTNALNFATFVDIVNQYNLRGISIWHPGGDDPQIYTVIQDRLE
MGSDKIHHHHHHMRNIVFTGKGGVGKTSIAASTAVRAAALGYKTLVISTDPAHSLGDSFDIELGPSPVKVAENLWGQEVSVYGDLSLNWEVVREHFAHLMEVQGIEGIYVEEMGVLPGMEELFSLSYIKRYNESSEYDLLVVDCAPTGETLRLLSIPETFGWMLKLMRNMEKYVVKPVIRPLSKRISRLHDFVPDTDVYDQVDHLFSSVEGIIELLSDNSKTTVRLVMNPEKMVVKESMRALTYLNLYNITIDQIVINRVYMDDVDGQYFKGWKEIQKKYIAEIESSFGPIPITRVPLFRTEVLGLEMLKKVGETVYGDRNPLDIFYHEEHTEIVKPGEGHYVMKLRLPFVFDNRMEANIVQVGDLLTIRIGNHQKSVVLPTFLAGMKVTHAGYEEKWLAIEFRKKETAK
MGSDKIHHHHHHMRPTENGVLHLRKKFVASLLAVAIASTTACAQLGISKEQAGTVIGGLAGVAIGSTMGSGNGKIAAALIAGGIGAYVGNRIGHMLDEKDQQALALRTQEVLSQQQTTASAQPVTWKSDHSGATAQIVPGKEYTKTKQVEVKRAPKIQAVPSMKLINEPYVTISDNLNVRAAPNQAGEKVGSLKNHTEFTAVGSTGDWILVGRKGVTVGYVHKNYVEPKAQAVAKRVTPAVNLDELDVAASKETQGFDLDSVQSLPTQTVAAEAACRPVTVSLKSQSGQTEQEQNTFCKQANGTWELI
MGSDKIHHHHHHMRSDLRIAIVANEKRGDGNIELRLQSKGYQVVTLTTPSSVMGFIYSDPPDVILMDLSSPDEAFLGIIRSLKDDFFFSTIPVIGMMPEPAAEFFDWDEYPLDDFVTFPLNFRELFTRIVLSLRRLRRVFDNNPLTRLPGNTSIQRAIEQTVGKPMAVCYVDINHFKQYNDVYGFAHGDEVLRMLGRIMSNAVKDAGDGFAGHIGGDDFVFIVPFDQAEVVAGRIIANFTAVVSELFNEEEKRNGFFLAHDRKGNEEKVPLMGVAIAIVPTDSPKIGHYAKVAEVAAELKTLAKQSHKSCFVVDRRKY
MGSDKIHHHHHHMRTLFSQQQWIDMKVLVTGATSGLGRNAVEFLCQKGISVRATGRNEAMGKLLEKMGAEFVPADLTELVSSQAKVMLAGIDTLWHCSSFTSPWGTQQAFDLANVRATRRLGEWAVAWGVRNFIHISSPSLYFDYHHHRDIKEDFRPHRFANEFARSKAASEEVINMLSQANPQTRFTILRPQSLFGPHDKVFIPRLAHMMHHYGSILLPHGGSALVDMTYYENAVHAMWLASQEACDKLPSGRVYNITNGEHRTLRSIVQKLIDELNIDCRIRSVPYPMLDMIARSMERLGRKSAKEPPLTHYGVSKLNFDFTLDITRAQEELGYQPVITLDEGIEKTAAWLRDHGKLPR
MGSDKIHHHHHHMRVKYFGTDGIRGIFGETLTDELAFKVGKALGEIVGEGKVIVGKDTRVSGDSLEAAISAGLTSMGVDVLLCGILPTPAVALLTRITRSFGVVISASHNPPEYNGIKVLKGGYKIPDEMEAEIEKRLENGSFLTRSVVGRTKSFREGRDMYIGAVLEMFRDLDLTGEMVSLDLANGATTTTAREVFEFLGAKVEVFNDSQDGLLINQGCGATHPRFLAEEMKNGKVGFTFDGDGDRVIAVDEERNVVNGDRIIGILAVGLKEEGRLNSDTVVGTVMTNGGLEDFLKEKGIRLLRTKVGDKYVLEKMLESGANLGGERSGHIIILDRSTTGDGLITALELMRVLKRSGRKLSDFAKEIPDYPQITKNVRRTERMSLENENLRKIVEESTSRGYRVVIRPSGTEPVIRITVEGKDREEIEKIVEEISRVLES
MGSDKIHHHHHHMRVYFDNNATTRVDDRVLEEMIVFYREKYGNPNSAHGMGIEANLHMEKAREKVAKVLGVSPSEIFFTSCATESINWILKTVAETFEKRKRTIITTPIEHKAVLETMKYLSMKGFKVKYVPVDSRGVVKLEELEKLVDEDTFLVSIMAANNEVGTIQPVEDVTRIVKKKNKETLVHVDAVQTIGKIPFSLEKLEVDYASFSAHKFHGPKGVGITYIRKGVPIRPLIHGGGQERGLRSGTQNVPGIVGAARAMEIAVEELSEAAKHMEKLRSKLVSGLMNLGAHIITPLEISLPNTLSVSFPNIRGSTLQNLLSGYGIYVSTSSACTSKDERLSHVLDAMGVDRRIAQGAIRISLCKYNTEEEVDYFLKKIEEILSFLDLTGNNRR
